# Measurements from the supplement of paper PMC10598134.
# ± gives the standard deviation.
# Assay: collision cross section of modified peptide (TIMS, N2, iRT-aligned); higher = larger / more extended gas-phase ion
# Method in brief: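 Collision cross section was derived from the Mason-Schamp equation. Each value averages 1–3 technical replicates of the most abundant feature per charge state, measured on a timsTOF Pro/HT in dda-PASEF mode (nitrogen, ~2.4 mbar) after a 120-min nanoflow C18 gradient at 60 °C. Synthetic peptide pools (~100 fmol/µL in 2% acetonitrile/0.1% formic acid, iRT standard spiked 1:40) were identified with MaxQuant, and 1/K0 was calibrated with three reference ions and aligned run-wise to the median iRT peptide deviation.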
# [1] = charge state: 2, modification: Succinyl
# [2] = charge state: 2, modification: HexNAc (ST)
# [3] = charge state: 2, modification: Formyl
# [4] = charge state: 3, modification: Formyl
# [5] = charge state: 2, modification: Glutarylation
# [6] = charge state: 2, modification: Dimethyl (K)
# [7] = charge state: 3, modification: Dimethyl (K)
# [8] = charge state: 3, modification: Citrullination (R)
# [9] = charge state: 3, modification: GlyGly (K)
# [10] = charge state: 2, modification: Crotonyl
# [11] = charge state: 2, modification: Nitro (Y)
# [12] = charge state: 2, modification: Acetyl (K)
# [13] = charge state: 3, modification: Acetyl (K)
sequence,measurement,setting,value
ILDLKTGTVK [_ILDLK(Succinyl)TGTVK_],collision cross section,[1],362.99 ± 0.74 Å²
FGVEAFSDCLR [_FGVEAFS(HexNAc (ST))DCLR_],collision cross section,[2],398.33 ± 0.63 Å²
LVLPSQAQARLPSGEVVK [_LVLPSQAQAR(Methyl (R))LPSGEVVK_],collision cross section,"charge state: 3, modification: Methyl (R)",522.24 ± 0.66 Å²
GEAGPTGPQGEPGVRGIR [_GEAGPTGPQGEP(Hydroxyproline)GVRGIR_],collision cross section,"charge state: 3, modification: Hydroxyproline",499.21 ± 1.2 Å²
LEKTIDDLEEK [_LEK(Propionyl)TIDDLEEK_],collision cross section,"charge state: 2, modification: Propionyl",406.15 ± 0.38 Å²
IINEPTAAAIAYGLDKK [_IINEPTAAAIAYGLDK(Malonyl)K_],collision cross section,"charge state: 2, modification: Malonyl",458.91 ± 0.99 Å²
SITHSTVGSKGEK [_SITHSTVGSK(Formyl)GEK_],collision cross section,[3],387.87 ± 1.4 Å²
same,collision cross section,[4],435.39 ± 3 Å²
GSLGAQKLANTCFNEIEK [_GSLGAQK(Gluratylation)LANTCFNEIEK_],collision cross section,[5],469.86 Å²
GTVPDDAVEALADSLGKK [_GTVPDDAVEALADSLGK(Dimethyl (K))K_],collision cross section,[6],485.51 ± 1.7 Å²
same,collision cross section,[7],525.76 Å²
SHLRHAIPSAER [_SHLR(Citrullination (R))HAIPSAER_],collision cross section,"charge state: 2, modification: Citrullination (R)",388.58 ± 0.81 Å²
same,collision cross section,[8],492.66 ± 4.6 Å²
VGTASVLQPVKK [_VGTASVLQPVK(Biotin)K_],collision cross section,"charge state: 2, modification: Biotin",406.39 ± 1.1 Å²
ALLQAKASGK [_ALLQAK(hydroxyisobutyryl)ASGK_],collision cross section,"charge state: 2, modification: hydroxyisobutyryl",353.14 ± 1.3 Å²
GSRGFPGEK [_GSRGFP(Hydroxyproline)GEK_],collision cross section,"charge state: 2, modification: Hydroxyproline",330.58 ± 0.79 Å²
INNFSADIKDSK [_INNFSADIK(Formyl)DSK_],collision cross section,[3],395.4 ± 0.83 Å²
DSSPTTNSKLSALQR [_DSSPTTNSK(Formyl)LSALQR_],collision cross section,[3],427.17 ± 1.8 Å²
same,collision cross section,[4],491.37 ± 1.3 Å²
HELQANCYEEVKDR [_HELQANCYEEVK(GlyGly (K))DR_],collision cross section,[9],529.53 ± 1.6 Å²
VEELEGEITTLNHK [_VEELEGEIT(HexNAc (ST))TLNHK_],collision cross section,[2],442.1 ± 10 Å²
same,collision cross section,"charge state: 3, modification: HexNAc (ST)",511.94 ± 0.96 Å²
ILDLKTGTVK [_ILDLK(Crotonyl)TGTVK_],collision cross section,[10],360.69 ± 0.88 Å²
HHTLRQAPQPQSSLQR [_HHTLR(Citrullination (R))QAPQPQSSLQR_],collision cross section,[8],502.84 ± 0.41 Å²
FYTEDSPGLK [_FY(Nitro (Y))TEDSPGLK_],collision cross section,[11],356.24 ± 0.17 Å²
MFLSFPTTK [_MFLS(HexNAc (ST))FPTTK_],collision cross section,[2],373.63 ± 0.17 Å²
VVDLLAPYAK [_VVDLLAPY(Phospho (Y))AK_],collision cross section,"charge state: 2, modification: Phospho (Y)",379.49 ± 0.074 Å²
SSGPGGQNVNKVNSK [_SSGPGGQNVNK(Crotonyl)VNSK_],collision cross section,[10],407.39 ± 1.4 Å²
LEKTIDDLEEK [_LEK(Dimethyl (K))TIDDLEEK_],collision cross section,[6],401.15 ± 1.1 Å²
same,collision cross section,[7],461.19 ± 2.1 Å²
ANEKTESSSAQQVAVSR [_ANEK(Acetyl (K))TESSSAQQVAVSR_],collision cross section,[12],433.42 ± 1.8 Å²
same,collision cross section,[13],527.9 ± 0.37 Å²
DSINFLDHINGKK [_DSINFLDHINGK(Acetyl (K))K_],collision cross section,[13],470.59 Å²
PANEKATDDYHYEK [_PANEK(Formyl)ATDDYHYEK_],collision cross section,[3],435.25 ± 0.72 Å²
same,collision cross section,[4],497.77 ± 2.4 Å²
SEASSEFAKK [_SEASSEFAK(Trimethyl (K))K_],collision cross section,"charge state: 2, modification: Trimethyl (K)",361.14 ± 0.6 Å²
same,collision cross section,"charge state: 3, modification: Trimethyl (K)",431.4 ± 4.5 Å²
ITASLCDLKSR [_ITASLCDLK(GlyGly (K))SR_],collision cross section,"charge state: 2, modification: GlyGly (K)",398.64 ± 0.87 Å²
same,collision cross section,[9],457.36 ± 1.1 Å²
INNFSADIKDSK [_INNFSADIK(Acetyl (K))DSK_],collision cross section,[12],398.34 ± 0.77 Å²
SLGEPAAGEGSAKR [_SLGEPAAGEGSAK(Succinyl)R_],collision cross section,[1],381.88 ± 0.8 Å²
same,collision cross section,"charge state: 3, modification: Succinyl",476.57 ± 0.7 Å²
GYDVIAQAQSGTGK [_GY(Nitro (Y))DVIAQAQSGTGK_],collision cross section,[11],387.17 ± 0.17 Å²
DYSSGFGGKYGVQADR [_DYSSGFGGK(Methyl (K))YGVQADR_],collision cross section,"charge state: 2, modification: Methyl (K)",432 Å²
same,collision cross section,"charge state: 3, modification: Methyl (K)",489.11 ± 2.4 Å²
ASDTSSETVFGKR [_ASDTSSETVFGK(Crotonyl)R_],collision cross section,[10],402.93 ± 0.81 Å²
same,collision cross section,"charge state: 3, modification: Crotonyl",478.92 ± 1.3 Å²
SLEEEGAAHSGKR [_SLEEEGAAHSGK(Gluratylation)R_],collision cross section,[5],420.5 ± 2 Å²
same,collision cross section,"charge state: 3, modification: Glutarylation",475.56 ± 1.7 Å²
ALLQAKASGK [_ALLQAK(Crotonyl)ASGK_],collision cross section,[10],351.6 ± 1.3 Å²
